This passage reports Kd results from patent publication CN118076384A.

This experiment concerns the target PDL1 on MDA MB-231 human breast cancer cells (human) (UniProt Q9NZQ7). The experiment can be described thus: flow cytometry on MDA MB-231 cells, anti-human IgG Fc secondary antibody.
UniProt Q9NZQ7, sequence (Q9NZQ7 19-290): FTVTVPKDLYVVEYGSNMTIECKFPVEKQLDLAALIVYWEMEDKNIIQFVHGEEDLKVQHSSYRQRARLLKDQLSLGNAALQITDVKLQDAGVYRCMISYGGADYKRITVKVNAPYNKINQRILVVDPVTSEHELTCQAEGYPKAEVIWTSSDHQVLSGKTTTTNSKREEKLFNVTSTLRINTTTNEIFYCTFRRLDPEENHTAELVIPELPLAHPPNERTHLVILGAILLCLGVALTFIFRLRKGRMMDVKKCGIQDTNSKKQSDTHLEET

Consider 德瓦鲁单抗(durvalumab) (antibody), for which the dissociation constant Kd (usually the free concentration of one partner at which half of the binding sites on the other are occupied at equilibrium, for simple one-to-one binding) was determined as 0.167 nM.
